According to patent US20250352659A1, “SELF-STABILIZING LINKER CONJUGATES” (priority 2023, published 2025):

How the values were obtained:
Type in all cases: physicochemical
[1] = Conjugator-antibody conjugate maleimide hydrolysis (ring opening) kinetics by reduced LCMS
Description: After the conjugation step, the ADC (or conjugator-antibody conjugate) was subjected to buffer exchange into ring opening buffer (pH 6.5˜9.0, PBS, borate or tris buffer) and the solution was left at 22 or 37° C. for 1˜48 h. The maleimide ring opening process was monitored via reduced LCMS. Once the conjugated maleimide hydrolysis was completed, the resulting ADCs were buffer exchanged into basic tris pH 8.0-8.5 buffer or acidic histidine-acetate pH 5.0-6.5 buffer via dialysis.
LCMS method to monitor and determine maleimide hydrolysis. LC-MS analysis was carried out under the following measurement conditions: • LC-MS system: Vanquish Flex UHPLC and Orbitrap Exploris 240 Mass Spectrometer • Column: MAbPac™ RP, 2.1*50 mm, 4 μm, 1,500 Å, Thermo Scientific™ • Column temperature: 80° C. • Mobile phase A: 0.1% formic acid (FA) aqueous solution • Mobile phase B: Acetonitrile solution containing 0.1% formic acid (FA) • Gradient program 1: 25% B-25% B (0 min-2 min), 25% B-50% B (2 min-18 min), 50% B-90% B (18 min-18.1 min), 90% B-90% B (18.1 min-20 min), 90% B-25% B (20 min-20.1 min), 25% B-25% B (20.1 min-25 min) • Gradient program 2 • Injected sample amount: 2 μg • MS parameters: Intact and denaturing MS data were acquired in HMR mode at setting of R=15k and deconvolved using the ReSpect™ algorithm and Sliding Window integration in Thermo Scientific™ BioPharma Finder™ 4.0 software.
Results for ring opening times measured by the LCMS method described above for monitoring ring hydrolysis are presented in Table 3 as RO T1/2 (h) (i.e., the time, in hours, for 50% of the maleimide rings to open).
Conjugator-antibody conjugate maleimide hydrolysis (ring opening) kinetics are presented in FIGS. 1A-1L, Table 3 (for pH 7.0 reaction conditions, hydrolysis T1/2), and Table 5. The data in Table 5 was generated by the LCMS method described above and includes the time, in hours, for the maleimide ring to open in more than 95% of the conjugators, after antibody conjugation (“RO Completed Time (>95%) (h)”). The results for conjugator-antibody conjugate 3-1 indicate that after 24 hours, about 0% of maleimide rings were open; the results for conjugator-antibody conjugate 3-3 indicate that after 24 hours, about 28% of maleimide rings were open.

[2] = Conjugator-antibody conjugate stability in pH 7.4 and 8.0 buffer with and without GSH; details: incubation 20 h;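 also: conjugate hydrolysis tracked by LC-MS analysis of reduced samples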
[3] = Conjugator-antibody conjugate stability in formulation buffer (pH 5.5 20 mM histidine buffer); details: pH 5.5, 22 °C
Description: After the conjugation and hydrolysis steps described above (see “DAR8 antibody drug conjugate/conjugator-antibody conjugate preparation”), conjugator-antibody conjugates were incubated in formulation buffer (pH 5.5 20 mM histidine buffer) or glutathione (GSH) buffer (pH 7.4 or 8.0), […] Hydrolysis status was monitored via reduced LCMS. Results are presented in Table 6, Table 7, and FIGS. 2A-23B.

[4] = Conjugator-antibody conjugate maleimide hydrolysis (ring opening) kinetics by reduced LCMS; details: pH 7, time point 96 h

CN(C)C(=O)CCNC(=O)OCC(CCN)N1C(=O)C=CC1=O (centres unmarked) [3-11]
half-life ([1]; buffer, pH 7.0, time for 50% of the maleimide rings to open, read-out: RO T1/2 (converted)): 14 h | MS DAR ([1]; pH 7, time point 1 h): 8 | RO (%) HC ([1]; pH 7, time point 1 h): 3.41% | RO (%) LC ([1]; pH 7, time point 1 h): 1.97% | RO (%) Total ([1]; pH 7, time point 1 h): 3.05% | MS DAR ([1]; pH 7, time point 3 h): 8 | RO (%) HC ([1]; pH 7, time point 3 h): 12.32% | RO (%) LC ([1]; pH 7, time point 3 h): 6.37% | RO (%) Total ([1]; pH 7, time point 3 h): 10.83% | MS DAR ([1]; pH 7, time point 5 h): 8 | RO (%) HC ([1]; pH 7, time point 5 h): 31.72% | RO (%) LC ([1]; pH 7, time point 5 h): 10.15% | RO (%) Total ([1]; pH 7, time point 5 h): 26.33% | MS DAR ([1]; pH 7, time point 7 h): 8 | RO (%) HC ([1]; pH 7, time point 7 h): 33.03% | RO (%) LC ([1]; pH 7, time point 7 h): 14.6% | RO (%) Total ([1]; pH 7, time point 7 h): 28.42% | MS DAR ([1]; pH 7, time point 24 h): 8 | RO (%) HC ([1]; pH 7, time point 24 h): 84.46% | RO (%) LC ([1]; pH 7, time point 24 h): 68.64% | RO (%) Total ([1]; pH 7, time point 24 h): 80.51% | MS DAR ([1]; pH 7, time point 96 h): 8 | RO (%) HC ([1]; pH 7, time point 96 h): 96.94% | RO (%) LC ([1]; pH 7, time point 96 h): 89.26% | RO Completed Time (>95%) ([1]; pH 7, time for the maleimide ring to open in more than 95% of the conjugators): 96 h | MS DAR ([2]; pH 7.4, 22 °C): 8.00 | MS DAR ([2]; pH 7.4, 37 °C): 8.00 | MS DAR ([2]; pH 8.0, 22 °C): 8.00 | MS DAR-T = 168 h ([3]; incubation 168 h): 8.00 | Maleimide ring opening ratio (%) at T = 168 h ([3]; incubation 168 h): 96.99% | MS DAR-T = 0 h [3]: 8.02 | RO (%) Total [4]: 95.02%
